Measured values published in article PMC7911018 (2021).

Target: HER2 ectodomain-Fc (96 kDa) (human, UniProt P04626 23-652)
Assay: SPR

Row | Kd | Binder
1 | 8.1 nM | VHH A10 (anti-HER2 nanobody) (VHH) VHH: DVQLQASGGGFVQPGGSLRLSCAASGATSNISNMGWFRQAPGKEREFVSAISRAESRPLYYADSVKGRFTISRDNSKNTVYLQMNSLRAEDTATYYCAYMPLVRHKAYWGQGTQVTVSS
2 | 40.5 nM | A10C (A10 CDRs grafted into the C8WT scaffold) (VHH) VHH: DVQLQASGGGLAQPGGSLRLSCAASCDRMYWVRQAPGKGLEWVSSCDRYYADSVKGRFTISRDNAKNTLYLQMNSLKLEDTALYFCACDRGQGTQVTVSS
